In paper PMC8858996 (iScience, 2022):
One block for each molecule: values may come before it.

How the values were obtained:
[1] = molecular target: EphA2 WT tagged at the C-terminus with mTURQ or EYFP (UniProt P29317)
[2] = molecular target: CGA-WLA-YRPK dimer (5); assay: ITC
[3] = molecular target: dimer (4); assay: ITC
[4] = molecular target: CGA-WLA-YR dimer (N-ter); assay: ITC
[5] = molecular target: the molecule itself; assay: FRET or BRET

EC50 of EphA2 autophosphorylation on Y588, endogenous EphA2 in PC3 cells, 15 min [1]: 0.0038 µM
Molecule: ephrinA1-Fc (ephrinA1 extracellular region fused to the dimeric Fc portion of an antibody) (Fc fusion)

Kd [2]: 0.021 µM
Kd [3]: 0.104 µM
stoichiometry N (EphA2 LBD per peptide) [3]: 2
Molecule: human EphA2 LBD (residues 28–200) (from UniProt P29317 28-200) (domain or fragment)

More lines, now with the values behind:

Molecule: human EphA2 ligand-binding domain (residues 28-200) (from UniProt P29317 28-200) (domain or fragment)
stoichiometry N [4]: 2

B1: EphA2 L223R/L254R/V255R tagged at the C-terminus with mTURQ or EYFP (receptor)
chain: AQGKEVVLLDFAAAGGELGWLTHPYGKGWDLMQNIMNDMPIYMYSVCNVMSGDQDNWLRTNWVYRGEAERIFIELKFTVRDCNSFPGGASSCKETFNLYYAESDLDYGTNFQKRLFTKIDTIAPDEITVSSDFEARHVKLNVEERSVGPLTRKGFYLAFQDIGACVALLSVRVYYKKCPELLQGLAHFPETIAGSDAPSRATVAGTCVDHAVVPPGGEEPRMHCAVDGEWRRPIGQCLCQAGYEKVEDACQACSPGFFKFEASESPCLECPEHTLPSPEGATSCECEEGFFRAPQDPASMPCTRPPSAPHYLTAVGMGAKVELRWTPPQDSGGREDIVYSVTCEQCWPESGECGPCEASVRYSEPPHGLTRTSVTVSDLEPHMNYTFTVEARNGVSGLVTSRSFRTASVSINQTEPPKVRLEGRSTTSLSVSWSIPPPQQSRVWKYEVTYRKKGDSNSYNVRRTEGFSVTLDDLAPDTTYLVQVQALTQEGQGAGSKVHEFQTLSPEGSGNLAVIGGVAVGVVLLLVLAGVGFFIHRRRKNQRARQSPEDVYFSKSEQLKPLKTYVDPHTYEDPNQAVLKFTTEIHPSCVTRQKVIGAGEFGEVYKGMLKTSSGKKEVPVAIKTLKAGYTEKQRVDFLGEAGIMGQFSHHNIIRLEGVISKYKPMMIITEYMENGALDKFLREKDGEFSVLQLVGMLRGIAAGMKYLANMNYVHRDLAARNILVNSNLVCKVSDFGLSRVLEDDPEATYTTSGGKIPIRWTAPEAISYRKFTSASDVWSFGIVMWEVMTYGERPYWELSNHEVMKAINDGFRLPTPMDCPSAIYQLMMQCWQQERARRPKFADIVSILDKLIRAPDSLKTLADFDPRVSIRLPSTSGSEGVPFRTVSEWLESIKMQQYTEHFMAAGYTAIEKVVQMTNDDIKRIGVRLPGHQKRIAYSLLGLKDQVNTVGIPI
stoichiometry N [5]: 2
